{"source": "paper PMC6707239", "key": {"[1]": {"biological_target": "human mitochondrial heat shock protein 60 (hsp60), wild type (human) (UniProt P10809)", "experiment": "dynamic light scattering; Malvern Zetasizer Nano ZS, hsp60 (wild type or mutant) without nucleotide (APO); percent volume"}, "[2]": {"biological_target": "human mitochondrial heat shock protein 60 (hsp60), wild type (human) (UniProt P10809)", "experiment": "negative-stain electron microscopy; hsp60 and hsp10 (1:1 molar ratio) with 2 mM Mg-ADP, about 5 min at room temperature, no substrate"}, "[3]": {"biological_target": "human mitochondrial heat shock protein 60 (hsp60), wild type (human) (UniProt P10809)", "experiment": "dynamic light scattering; 1 uM hsp60 (wild type or mutant), 2 uM hsp10, 2 mM ADP; 5 min at 37 C; unbound nucleotide removed on desalting spin columns"}, "[4]": {"biological_target": "human mitochondrial heat shock protein 60 (hsp60), wild type (human) (UniProt P10809)", "experiment": "dynamic light scattering; 1 uM hsp60 (wild type or mutant), 2 uM hsp10, 100 mM ATP, 100 mM MgCl2; 5 min at 37 C; unbound nucleotide removed on desalting spin columns"}, "[5]": {"biological_target": "human mitochondrial heat shock protein 60 (hsp60), wild type (human) (UniProt P10809)", "experiment": "negative-stain electron microscopy; wild type hsp60/hsp10 with 2 mM ATP, about 5 min at room temperature, no substrate; bullet reconstruction, C7 symmetry, about 17 A"}, "[6]": {"biological_target": "human mitochondrial heat shock protein 60 (hsp60), wild type (human) (UniProt P10809)", "experiment": "negative-stain electron microscopy; hsp60 and hsp10 (2:1 molar ratio) with 100 mM ATP, about 5 min at room temperature, no substrate; football reconstruction, D7 symmetry, about 20 A"}, "[7]": {"biological_target": "human mitochondrial heat shock protein 60 (hsp60), wild type (human) (UniProt P10809)", "experiment": "negative-stain electron microscopy; purified hsp60/hsp10 at 0.2 mg/ml on carbon grids, no nucleotide and no substrate (APO conformation); class averages and single-particle reconstruction"}}, "data": [{"substance": "human mitochondrial heat shock protein 60 (hsp60), wild type (from UniProt P10809 27-573) (natural protein)", "values": [{"measurement": "stoichiometry N", "setting": "[1]", "result": 14}, {"measurement": "stoichiometry N", "setting": "[2]", "result": 7}, {"measurement": "stoichiometry N", "setting": "[3]", "result": 14}, {"measurement": "stoichiometry N", "setting": "[4]", "result": 14}, {"measurement": "stoichiometry N", "setting": "[5]", "result": 14}, {"measurement": "stoichiometry N", "setting": "[6]", "result": 14}, {"measurement": "stoichiometry N", "setting": "[7]", "result": 14}]}]}
